Reference: doi:10.1101/2020.11.24.395475

Biological target: ARTD2WGR-RD-ART (Homo sapiens, UniProt Q9UGN5 90-583)
Experiment: X-ray crystallography

Sequence of ARTD2WGR-RD-ART (Q9UGN5 90-583): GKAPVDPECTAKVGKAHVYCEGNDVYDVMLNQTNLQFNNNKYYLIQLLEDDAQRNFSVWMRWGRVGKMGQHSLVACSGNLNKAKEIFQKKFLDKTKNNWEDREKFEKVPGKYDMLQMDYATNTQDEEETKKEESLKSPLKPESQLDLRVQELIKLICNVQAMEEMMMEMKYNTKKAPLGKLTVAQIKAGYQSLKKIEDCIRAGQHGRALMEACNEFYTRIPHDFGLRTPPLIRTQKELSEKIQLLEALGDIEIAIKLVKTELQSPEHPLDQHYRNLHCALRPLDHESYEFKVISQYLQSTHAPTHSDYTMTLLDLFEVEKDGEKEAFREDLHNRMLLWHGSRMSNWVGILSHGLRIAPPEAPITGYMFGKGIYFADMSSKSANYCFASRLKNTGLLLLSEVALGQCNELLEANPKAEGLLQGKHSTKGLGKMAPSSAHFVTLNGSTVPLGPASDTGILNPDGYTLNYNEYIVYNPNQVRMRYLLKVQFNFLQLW

B1: DNA-1 (dsDNA)
DNA 1: GACGACCCGGAGCACA
DNA 2: TGTGCTCCGGGTCGTC
modifications: 5'-phosphate on forward strand
- binding result: binds
